In publication PMC3121535 (Journal of molecular biology, 2010):
Where a chain is given by its changes, count along the chain named. Numbers in names are those of the source. Where no end group is shown, it is not given here. [ ]: non-standard residue; d: D form. pS = N[C@@H](COP(=O)(O)O)C(=O)O

What was measured:
[1] = target: SERCA (sarcoplasmic reticulum calcium ATPase); assay: 2D co-crystal frequency, negative-stain EM; settings: sites S16
cryo-EM structure = target: the molecule itself; assay: cryo-EM structure
SDS-PAGE = target: the molecule itself; assay: SDS-PAGE

phospholamban (PLB) (from UniProt P26678) PKA-phosphorylated K27A PLB
other: crystals per grid square ([1]; reference: non-phosphorylated K27A PLB): weaker; reference 5 ± 1 (n = 6)

phospholamban (PLB) (from UniProt P26678) PKA-phosphorylated wild-type PLB
other: crystals per grid square ([1]; reference: non-phosphorylated wild-type PLB): weaker; reference 3.1 ±0.5 (n = 7)

B1: wild-type phospholamban (PLB) (natural protein, human, UniProt P26678 1-52, looked up)
chain: MEKVQYLTRSAIRRASTIEMPQQARQKLQNLFINFCLILICLLLICIIVMLL
stoichiometry N (cryo-EM structure): 5

B2: phospholamban gain-of-function mutant Lys27-to-Ala (K27A) (natural protein, human, UniProt P26678 1-52, looked up)
chain: B1 chain with K27A
stoichiometry N (cryo-EM structure): 5

B3: phosphorylated K27A phospholamban (Ser16, by PKA) (natural protein, human, UniProt P26678 1-52, looked up)
chain: MEKVQYLTRSAIRRA[pS]TIEMPQQARQALQNLFINFCLILICLLLICIIVMLL
modifications: cysteine pairing not given here
stoichiometry N (SDS-PAGE): 5

B4: phosphorylated wild-type phospholamban (Ser16, by PKA) (natural protein, human, UniProt P26678 1-52, looked up)
chain: MEKVQYLTRSAIRRA[pS]TIEMPQQARQKLQNLFINFCLILICLLLICIIVMLL
modifications: cysteine pairing not given here
stoichiometry N (cryo-EM structure): 5
